Values of other authors in article PMC3039521.

Target: Abl P-x-L-P-x-K motif (UniProt P00519)

Kd: 1 µM
Substance: Crk SH3N (from UniProt P46108)
